Reference: publication PMC11187117, “Structure of the endosomal CORVET tethering complex” (Nature Communications, 2024)

Key:
[1] = molecular target: T1, Vps18 (CORVET and HOPS core subunit) (yeast, UniProt P27801 1-918); experiment: cryo-EM structure; single-particle cryo-EM of the hexameric CORVET co-expressed in yeast and purified by 3xFLAG on Vps8 and SEC; about 0.8 mg/ml; consensus map 4.6 Å, local refinements to 3.8 Å; details: both partners purified
T1 construct: Vps18, yeast, core subunit shared by CORVET and HOPS
T1 sequence: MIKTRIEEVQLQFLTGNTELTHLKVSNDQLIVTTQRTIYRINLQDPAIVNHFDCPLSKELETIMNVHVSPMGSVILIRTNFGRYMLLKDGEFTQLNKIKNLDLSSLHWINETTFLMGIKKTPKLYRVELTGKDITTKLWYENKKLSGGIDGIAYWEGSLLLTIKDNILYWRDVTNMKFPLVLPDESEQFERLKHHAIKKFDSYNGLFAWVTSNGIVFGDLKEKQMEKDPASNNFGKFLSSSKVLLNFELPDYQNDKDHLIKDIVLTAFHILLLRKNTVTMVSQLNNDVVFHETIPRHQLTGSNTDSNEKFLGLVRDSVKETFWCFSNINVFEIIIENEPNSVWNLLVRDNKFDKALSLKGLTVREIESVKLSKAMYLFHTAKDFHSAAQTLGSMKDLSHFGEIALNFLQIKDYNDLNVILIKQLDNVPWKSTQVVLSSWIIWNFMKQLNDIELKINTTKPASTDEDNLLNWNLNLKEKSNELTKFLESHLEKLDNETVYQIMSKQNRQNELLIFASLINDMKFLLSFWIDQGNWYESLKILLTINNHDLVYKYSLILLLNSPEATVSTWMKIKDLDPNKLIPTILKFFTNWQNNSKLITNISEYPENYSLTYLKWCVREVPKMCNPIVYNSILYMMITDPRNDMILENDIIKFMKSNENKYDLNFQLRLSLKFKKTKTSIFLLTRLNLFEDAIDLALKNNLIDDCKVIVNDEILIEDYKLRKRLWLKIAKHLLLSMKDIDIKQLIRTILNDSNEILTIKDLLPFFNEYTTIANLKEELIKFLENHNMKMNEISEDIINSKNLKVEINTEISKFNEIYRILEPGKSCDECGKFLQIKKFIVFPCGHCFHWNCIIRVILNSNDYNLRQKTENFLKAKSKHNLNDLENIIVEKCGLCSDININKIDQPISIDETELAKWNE

[2] = molecular target: T2, Vps16 (CORVET and HOPS subunit, SNARE-binding module) (yeast, UniProt Q03308 1-798); experiment: as above; details: both partners purified
T2 construct: Vps16, yeast, subunit shared by CORVET and HOPS
T2 sequence: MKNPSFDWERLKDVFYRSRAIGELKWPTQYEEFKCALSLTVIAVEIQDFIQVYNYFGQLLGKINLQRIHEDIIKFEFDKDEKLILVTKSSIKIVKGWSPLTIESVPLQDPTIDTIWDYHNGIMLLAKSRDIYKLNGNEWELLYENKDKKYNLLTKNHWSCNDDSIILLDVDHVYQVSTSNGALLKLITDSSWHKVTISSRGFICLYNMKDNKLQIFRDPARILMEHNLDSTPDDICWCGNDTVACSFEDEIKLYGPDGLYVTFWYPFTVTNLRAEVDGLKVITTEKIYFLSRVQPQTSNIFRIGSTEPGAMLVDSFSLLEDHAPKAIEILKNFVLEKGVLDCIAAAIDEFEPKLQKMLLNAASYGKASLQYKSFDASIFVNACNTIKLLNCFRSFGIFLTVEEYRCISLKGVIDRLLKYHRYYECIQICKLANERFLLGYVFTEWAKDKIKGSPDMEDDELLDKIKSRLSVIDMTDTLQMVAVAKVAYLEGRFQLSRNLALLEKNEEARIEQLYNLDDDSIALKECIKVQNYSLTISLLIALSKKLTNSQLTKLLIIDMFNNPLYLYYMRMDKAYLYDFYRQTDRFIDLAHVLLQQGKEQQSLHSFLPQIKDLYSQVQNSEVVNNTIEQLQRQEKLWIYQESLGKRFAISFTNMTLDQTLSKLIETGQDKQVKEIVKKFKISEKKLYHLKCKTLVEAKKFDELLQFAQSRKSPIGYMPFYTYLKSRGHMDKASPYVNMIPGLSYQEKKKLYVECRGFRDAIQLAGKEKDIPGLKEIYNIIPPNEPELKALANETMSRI

B1: Vps33 (CORVET and HOPS subunit, SM protein of the SNARE-binding module) (natural protein, yeast)
chain: MNRFWNTKKFSLTNADGLCATLNEISQNDEVLVVQPSVLPVLNSLLTFQDLTQSTPVRKITLLDDQLSDDLPSALGSVPQMDLIFLIDVRTSLRLPPQLLDAAQKHNLSSLHIIYCRWKPSFQNTLEDTEQWQKDGFDLNSKKTHFPNVIESQLKELSNEYTLYPWDLLPFPQIDENVLLTHSLYNMENVNMYYPNLRSLQSATESILVDDMVNSLQSLIFETNSIITNVVSIGNLSKRCSHLLKKRIDEHQTENDLFIKGTLYGERTNCGLEMDLIILERNTDPITPLLTQLTYAGILDDLYEFNSGIKIKEKDMNFNYKEDKIWNDLKFLNFGSIGPQLNKLAKELQTQYDTRHKAESVHEIKEFVDSLGSLQQRQAFLKNHTTLSSDVLKVVETEEYGSFNKILELELEILMGNTLNNDIEDIILELQYQYEVDQKKILRLICLLSLCKNSLREKDYEYLRTFMIDSWGIEKCFQLESLAELGFFTSKTGKTDLHITTSKSTRLQKEYRYISQWFNTVPIEDEHAADKITNENDDFSEATFAYSGVVPLTMRLVQMLYDRSILFHNYSSQQPFILSREPRVSQTEDLIEQLYGDSHAIEESIWVPGTITKKINASIKSNNRRSIDGSNGTFHAAEDIALVVFLGGVTMGEIAIMKHLQKILGKKGINKRFIIIADGLINGTRIMNSIS
notes: Vps33, yeast, subunit shared by CORVET and HOPS
- binding result [1]: binds
- binding result [2]: binds
